In US9284541B2, “Methods and compositions for protein labeling using lipoic acid ligases” (Massachusetts Institute of Technology, priority 2007, dated 2016):

Substrate: [N-]=[N+]=NCCCCCCCC(=O)O
Assay: Measurement of LplA-probe ligation kinetics (HPLC)
Format: biochemical, E. coli
Conditions: other: ligation to E2p, 200 nM LplA; pH 7.0; 30.0 °C
Description: To measure the kcat for LplA ligation of lipoic acid to E2p, 50 nM LplA was combined with 200 μM E2p, 750 μM lipoic acid, […], and 2 mM magnesium acetate in 25 mM sodium phosphate pH 7.0. The reaction was initiated with addition of 1 mM ATP to the pre-warmed (30° C.) mixture. The reaction was incubated at 30° C., and 90 μL aliquots were removed every 5 minutes and quenched with 50 mM EDTA (final concentration). Samples were analyzed by C18 reverse-phase HPLC as described in the “Methods” section. Measurements were performed in triplicate. A calibration curve was obtained that correlated the ratio of integrated HPLC peak areas (E2p:E2p-probe) to the actual protein ratio, in order to compensate for differences in the extinction coefficients of E2p and lipoylated E2p. The amount of product obtained at each time point was plotted against time, to obtain the Vmax of the reaction. From this, the kcat value was obtained using the equation Vmax=kcat [E]total.
90 μL aliquots were removed from the 30° C. reactions at 5 minutes intervals, up to 30 minutes, and quenched with 50 mM EDTA (final concentration). Samples were analyzed by HPLC as above. The amount of product obtained at each time point was plotted against time, to obtain the initial velocity for each concentration of azide 7. […] From the Vmax value, kcat was calculated using the equation Vmax=kcat [E]total.

B1: E. coli LplA (Escherichia coli K-12) (protein)
chain: STLRLLISDSYDPWFNLAVEECIFRQMPATQRVLFLWRNADTVVIGRAQNPWKECNTRRMEEDNVRLARRSSGGGAVFHDLGNTCFTFMAGKPEYDKTISTSIVLNALNALGVSAEASGRNDLVVKTVEGDRKVSGSAYRETKDRGFHHGTLLLNADLSRLANYLNPDKKKLAAKGITSVRSRVTNLTELLPGITHEQVCEAITEAFFAHYGERVEAEIISPNKTPDLPNFAETFARQSSWEWNFGQAPAFSHLLDERFTWGGVELHFDVEKGHITRAQVFTDSLNPAPLEALAGRLQGCLYRADMLQQECEALLVDFPEQEKELRELSAWMAGAVR
Work on B1 yielded a Km of 127 ± 11 µM.
